Reference: the supplement of paper PMC12764529
± gives the half width of the 95% confidence interval.

How the values were obtained:
[1] = folding stability dG unfold from chymotrypsin proteolysis; higher = more stable
In short: (§1)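 Only designs with AlphaFold2 dimer inter-PAE above 15 were retained; each was a mini-protein under 80 residues with no cysteine, in a PA-tagged cDNA display construct. After digestion with trypsin and chymotrypsin and sequencing, K50 was inferred by Bayesian fitting of counts, and unfolding free energy was derived per protease or combined against a sequence-predicted unfolded-state K50 and a shared folded-state K50.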

[2] = folding stability dG unfold from trypsin proteolysis; higher = more stable
In short: as §1

[3] = folding stability dG unfold (combined trypsin and chymotrypsin); higher = more stable
In short: as §1

Sequence: SAGGMTLRIVLPEEEAEKLVEELKKIFPGAEIKVKKVEYNEETGEKLVVLEIKFKSKEEAEKAKKLLESAGG [r13_539_TrROS_Hall]
- folding stability dG unfold [1]: 3.8 ± 0.12 kcal/mol
- folding stability dG unfold [2]: 3.54 ± 0.1 kcal/mol
- folding stability dG unfold [3]: 3.73 ± 0.083 kcal/mol

Sequence: SAGGMTLTLTGPEEVVDDLLERLREEFPDVTVEPTAVSYDPATGLVTVPVRVVTEDPAVVAAIRAALSSAGG [r13_539_JUSTAS]
- folding stability dG unfold [1]: 3.562 ± 0.03 kcal/mol
- folding stability dG unfold [2]: 4.08 ± 0.091 kcal/mol
- folding stability dG unfold [3]: 3.79 ± 0.065 kcal/mol

Sequence: SAGGMTLTLTIKVKTTTVEKDAATGKETVRTETRTLTVTIEAESEEEALAALKKLLEELGFEIVEVTSAGGS [r16_459_TrROS_Hall]
- folding stability dG unfold [1]: 5.1 ± 0.22 kcal/mol
- folding stability dG unfold [2]: 3.99 ± 0.27 kcal/mol
- folding stability dG unfold [3]: 4.89 ± 0.28 kcal/mol

Sequence: SAGGMTPAVTETTIELPASDPEAAIAALRAAGWELLARERGPDGSVRMVFAAPTRRVTVDFVGPAAASAGGS [r16_170_JUSTAS]
- folding stability dG unfold [1]: 2.03 ± 0.039 kcal/mol
- folding stability dG unfold [2]: 1.06 ± 0.014 kcal/mol
- folding stability dG unfold [3]: 1.71 ± 0.032 kcal/mol

Sequence: SAGGMTPEELREKAKKLAEELAKKLKEKYPNVKVEVEVDEETKKVKIKVKNKKTGKTYEITINLEELLSAGG [r13_354_TrROS_Hall]
- folding stability dG unfold [1]: 3.94 ± 0.22 kcal/mol
- folding stability dG unfold [2]: 3.85 ± 0.47 kcal/mol
- folding stability dG unfold [3]: 4.09 ± 0.42 kcal/mol

Sequence: SAGGMTRVLELTVPVDVIGPEELKALLEALAEDAEVEFEIGPDGLLRVRVTVDVPPDPDAPPDLDGESAGGS [r16_535_TrMRF]
- folding stability dG unfold [1]: 2.4 ± 0.099 kcal/mol
- folding stability dG unfold [2]: 1.82 ± 0.045 kcal/mol
- folding stability dG unfold [3]: 2.33 ± 0.11 kcal/mol

Sequence: SAGGMTSTLTVTLTVSPSTSPEEAAERAAEALEAAHPDRTVVIESITVTPATGKVVATIKVVGDTGASAGGS [r8_26_JUSTAS]
- folding stability dG unfold [1]: 1.18 ± 0.029 kcal/mol
- folding stability dG unfold [2]: 1.53 ± 0.055 kcal/mol
- folding stability dG unfold [3]: 1.39 ± 0.07 kcal/mol

Sequence: SAGGMTTTTTFDGPTDEAFDLPSGVKVEPEPATGGYRVELPPGREVEVTVERSTDPGTVTWTFTFKESAGGS [r16_122_JUSTAS]
- folding stability dG unfold [1]: 0.531 ± 0.16 kcal/mol
- folding stability dG unfold [2]: 0.3 ± 0.036 kcal/mol
- folding stability dG unfold [3]: 0.544 ± 0.078 kcal/mol

Sequence: SAGGMTTVTTTFTMSSEELKKFLEEKFGREVTKEEIIELIPKEKKIDVSESPQPNGTVKYTITITIEKSAGG [r13_869_JUSTAS]
- folding stability dG unfold [1]: 2.61 ± 0.044 kcal/mol
- folding stability dG unfold [2]: 1.99 ± 0.099 kcal/mol
- folding stability dG unfold [3]: 2.44 ± 0.16 kcal/mol

Sequence: SAGGMTVERVPGSGVYTLTFPDGSTETLEIPPEENAVVYAKEGAGTVTVKLAPPDDPEALAAAAALSSAGGS [r16_623_JUSTAS]
- folding stability dG unfold [1]: 0.357 ± 0.069 kcal/mol
- folding stability dG unfold [2]: -0.344 ± 0.083 kcal/mol
- folding stability dG unfold [3]: 0.15 ± 0.066 kcal/mol

Sequence: SAGGMTVSVTADGSSYTATVKLPDGTTLTVPFTSLEELATQVREEYEKAFPDVPLERLVLEDISPTAPSAGG [r13_887_JUSTAS]
- folding stability dG unfold [1]: 3.344 ± 0.021 kcal/mol
- folding stability dG unfold [2]: 1.77 ± 0.031 kcal/mol
- folding stability dG unfold [3]: 2.93 ± 0.036 kcal/mol

Sequence: SAGGMTVTVLEVTEEEVIIDDKKEKIITITIKLPDGTEITVTLSTSEIEAKGLTKEEAVEYIAKKLLSAGGS [r16_625_JUSTAS]
- folding stability dG unfold [1]: 4.16 ± 0.058 kcal/mol
- folding stability dG unfold [2]: 3.55 ± 0.085 kcal/mol
- folding stability dG unfold [3]: 3.99 ± 0.078 kcal/mol

Sequence: SAGGMVEITATVGSPDPSLTDEEIAERILKELGLDPEIVEVTFLERRLVPDAAGRVRVVVEMKFLVPEKSAG [r5_528_JUSTAS]
- folding stability dG unfold [1]: 4.26 ± 0.16 kcal/mol
- folding stability dG unfold [2]: 4.77 ± 0.21 kcal/mol
- folding stability dG unfold [3]: 4.73 ± 0.19 kcal/mol

Sequence: SAGGMVEVTYDPETGTLTILLPSPSGTLGPEAVEAAARLIRELYPEAEVEVEPLPDNTVRLRVRFPGGSAGG [r13_291_TrMRF]
- folding stability dG unfold [1]: 5.38 ± 0.23 kcal/mol
- folding stability dG unfold [2]: 4.22 ± 0.093 kcal/mol
- folding stability dG unfold [3]: 4.96 ± 0.14 kcal/mol

Sequence: SAGGMVILVKDKDGRWRELSEEEIRRLAEELERRYNLEVEEVELEDGERYYLIRIEPPEVPGLSEEELSAGG [r13_790_TrROS_Hall]
- folding stability dG unfold [1]: 2.15 ± 0.13 kcal/mol
- folding stability dG unfold [2]: 1.97 ± 0.059 kcal/mol
- folding stability dG unfold [3]: 2.23 ± 0.21 kcal/mol

Sequence: SAGGMVIRVRFRETNETVTLSPEVLEALKRGDPDALRALPEEQREALARIERVEIRPAPPVRVLPEEESAGG [r13_233_TrROS_Hall]
- folding stability dG unfold [1]: 1.81 ± 0.14 kcal/mol
- folding stability dG unfold [2]: 2.63 ± 0.14 kcal/mol
- folding stability dG unfold [3]: 2.29 ± 0.43 kcal/mol

Sequence: SAGGMVITIPTTTSSIEEAIEAVKKKVEEEGYKVTEIKDIKVSTDPKTGKINVTATVIVEKLPKEEKSAGGS [r16_155_JUSTAS]
- folding stability dG unfold [1]: 2.85 ± 0.22 kcal/mol
- folding stability dG unfold [2]: 0.99 ± 0.057 kcal/mol
- folding stability dG unfold [3]: 2.55 ± 0.3 kcal/mol

Sequence: SAGGMVIVFPAPKDISPDELRELIEAEVGPLAEELGLTEASIPIAKVEELPEGSRRVVAVIELRFDGSAGGS [r8_184_TrMRF]
- folding stability dG unfold [1]: 0.332 ± 0.048 kcal/mol
- folding stability dG unfold [2]: 0.977 ± 0.027 kcal/mol
- folding stability dG unfold [3]: 0.718 ± 0.056 kcal/mol

Sequence: SAGGMVIVVKTKEEAKKALEELLKKLFPDLKIKKIEIKEVEVEVKKKDGKKVKKKKFIVVKIEIEKESAGGS [r16_267_TrROS_Hall]
- folding stability dG unfold [1]: 3.38 ± 0.13 kcal/mol
- folding stability dG unfold [2]: 2.61 ± 0.1 kcal/mol
- folding stability dG unfold [3]: 3.05 ± 0.13 kcal/mol

Sequence: SAGGMVKLTVYETPDSYTVTIDLGDKPYTIPVPPGLSPEEAAARAVEELQKAFPDEEVVVESVEYVARSAGG [r13_884_JUSTAS]
- folding stability dG unfold [1]: 1.24 ± 0.086 kcal/mol
- folding stability dG unfold [2]: 1.1 ± 0.079 kcal/mol
- folding stability dG unfold [3]: 1.19 ± 0.068 kcal/mol

Sequence: SAGGMVNLRLYNPATGEPIDFPVPKDVVEEMLKNGDLAALEALFPGFPIAKVEVDEGEEVPAVPPDEASAGG [r13_629_TrMRF]
- folding stability dG unfold [1]: 0.0323 ± 0.15 kcal/mol
- folding stability dG unfold [2]: 0.776 ± 0.032 kcal/mol
- folding stability dG unfold [3]: 0.462 ± 0.14 kcal/mol

Sequence: SAGGMVQISVTEIDPETGLITIEMKFPKGVDDPAKIAAAKAEAEAFAQELEKKLGLPVKVTFTPLPESAGGS [r16_304_JUSTAS]
- folding stability dG unfold [1]: 1.9 ± 0.039 kcal/mol
- folding stability dG unfold [2]: 1.95 ± 0.037 kcal/mol
- folding stability dG unfold [3]: 1.93 ± 0.043 kcal/mol

Sequence: SAGGMVTITLPEVNVEDPEVAEARMEEIAARLRAAGVTVTSASYDPEKGLATITVSAGGLSAAEVLASAGGS [r8_344_JUSTAS]
- folding stability dG unfold [1]: 2.455 ± 0.015 kcal/mol
- folding stability dG unfold [2]: 2.48 ± 0.042 kcal/mol
- folding stability dG unfold [3]: 2.47 ± 0.037 kcal/mol

Sequence: SAGGMVTITTEKMTEEEAEELKKKLPPNTVLLPNPANDTIVPILVPPDPAVLQAVKDALEKELAEAKSAGGS [r16_311_JUSTAS]
- folding stability dG unfold [1]: 0.662 ± 0.24 kcal/mol
- folding stability dG unfold [2]: 1.49 ± 0.13 kcal/mol
- folding stability dG unfold [3]: 1.18 ± 0.15 kcal/mol

Sequence: SAGGMVTSTVSVDPSVPKTTTTETFSDGTRVVTTTTELPSGLTVTTTTVTVPPDGSTTATSTTTTIAPSAGG [r13_230_JUSTAS]
- folding stability dG unfold [1]: 0.958 ± 0.044 kcal/mol
- folding stability dG unfold [2]: 1.62 ± 0.064 kcal/mol
- folding stability dG unfold [3]: 1.27 ± 0.11 kcal/mol

Sequence: SAGGMVTVDTDPTEDGTLRVTVTVPRPDGPALTLTLDFPPEAGSLAVVLARADEALAAEMARRGLALSAGGS [r8_464_JUSTAS]
- folding stability dG unfold [1]: 1.95 ± 0.14 kcal/mol
- folding stability dG unfold [2]: -0.0072 ± 0.27 kcal/mol
- folding stability dG unfold [3]: 1.44 ± 0.22 kcal/mol

Sequence: SAGGMVVTEEGDKTYITVRVPAPPGLPPEAVAAEIRERYGLSDLEVLEVEALPDGTLVVRLRDSTPASAGGS [r16_234_JUSTAS]
- folding stability dG unfold [1]: 2.554 ± 0.021 kcal/mol
- folding stability dG unfold [2]: 2.55 ± 0.074 kcal/mol
- folding stability dG unfold [3]: 2.55 ± 0.044 kcal/mol

Sequence: SAGGMVVVAVEVDPVTKTATIVYAAPVPNLGGYVPIPAAAVAKRLTEELGLPDVKEVTVAQAAGDVPISAGG [r13_327_TrMRF]
- folding stability dG unfold [1]: 0.607 ± 0.1 kcal/mol
- folding stability dG unfold [2]: 0.428 ± 0.057 kcal/mol
- folding stability dG unfold [3]: 0.578 ± 0.12 kcal/mol

Sequence: SAGGMYLYKINIKNENEEFFLPILAPEEDEEKVEELAKEISIKLGVKPENIKIEKIEKILGPNGIPVSAGGS [r16_650_TrMRF]
- folding stability dG unfold [1]: 2.08 ± 0.037 kcal/mol
- folding stability dG unfold [2]: 1.74 ± 0.058 kcal/mol
- folding stability dG unfold [3]: 1.99 ± 0.1 kcal/mol

Sequence: SAGGNIKIEVYRSPDYYMIRIKLDGKPYEIPIDPGNTEEEAAEQALDNLQEKFPDKPIKIKDVEIYPYSAGG [r13_884_TrROS]
- folding stability dG unfold [1]: 0.513 ± 0.42 kcal/mol
- folding stability dG unfold [2]: 0.473 ± 0.22 kcal/mol
- folding stability dG unfold [3]: 0.566 ± 0.28 kcal/mol

Sequence: SAGGNIKVRREPRPNGQYRVKITIPDPDGKPIEIEYRMPPGMDSPEQAQKEAIEVVKEFAKKHNIKISAGGS [r8_464_TrROS]
- folding stability dG unfold [1]: 0.733 ± 0.17 kcal/mol
- folding stability dG unfold [2]: 0.423 ± 0.17 kcal/mol
- folding stability dG unfold [3]: 0.605 ± 0.21 kcal/mol
